Results from US20240116985A1 (published 2024).
Starred links: 1 amine or outer side, 2 acyl side, 3 side chain; linkers in the order of their positions; H or OH if unused. Positions of bridges follow the written chain, without caps; N, C: chain ends. Non-standard residues stand in square brackets, D forms with d. Primed or numbered codes have the meaning given here. B5(11) = 2,2-bis(4-pentenyl)glycine = 2-amino-2-(pent-4-en-1-yl)hept-6-enoic acid (stitching residue, bears both staples), C=CCCCC(CCCC=C)(N[*:1])C(=O)[*:2]; PyrS2(3) = (S)-3-amino-1-((pent-4-en-1-yloxy)carbonyl)pyrrolidine-3-carboxylic acid, stapling residue, C=CCCCOC(=O)N1CC[C@@](N[*:1])(C(=O)[*:2])C1; B5(18) = 2,2-bis(4-pentenyl)glycine (2-amino-2-(pent-4-en-1-yl)hept-6-enoic acid), stitching residue, C=CCCCC(CCCC=C)(N[*:1])C(=O)[*:2]; B5(4) = 2,2-bis(4-pentenyl)glycine = 2-amino-2-(pent-4-en-1-yl)hept-6-enoic acid (stitching residue), C=CCCCC(CCCC=C)(N[*:1])C(=O)[*:2]; TfeGA = (S)-2-amino-3-((carboxymethyl)(2,2,2-trifluoroethyl)amino)propanoic acid, O=C([C@H](CN(CC(=O)[*:3])CC(F)(F)F)N[*:1])[*:2]; PyrS2 = (S)-3-amino-1-((pent-4-en-1-yloxy)carbonyl)pyrrolidine-3-carboxylic acid, C=CCCCOC(=O)N1CC[C@@](N[*:1])(C(=O)[*:2])C1; B5(12) = 2-amino-2-(pent-4-en-1-yl)hept-6-enoic acid (two olefin side chains), C=CCCCC(CCCC=C)(N[*:1])C(=O)[*:2]; HypEs5 = (2R,4S)-4-(pent-4-enoyloxy)pyrrolidine-2-carboxylic acid, C=CCCC(=O)O[C@H]1C[C@H](C(=O)[*:2])N([*:1])C1; 2COOHF = (S)-2-(2-amino-2-carboxyethyl)benzoic acid, O=C([C@H](Cc1ccccc1C(=O)[*:3])N[*:1])[*:2]; Phe(3-COOH) = N[C@@H](Cc1cccc(C(=O)O)c1)C(=O)O; Phe(2-Cl) = N[C@@H](Cc1ccccc1Cl)C(=O)O; Bta = N[C@@H](Cc1csc2ccccc12)C(=O)O; αAllylPro = C=CC[C@@]1(C(=O)O)CCCN1; NMeH = CN[C@@H](Cc1c[nH]cn1)C(=O)O; tBuAla = CC(C)(C)C[C@H](N)C(=O)O; 3Thi = N[C@@H](Cc1ccsc1)C(=O)O; S8 = C=CCCCCCC[C@](C)(N)C(=O)O; 2Nic = not defined here; Dap = NC[C@H](N)C(=O)O

T1: full-length beta-Catenin (Uniprot ID P35222) (Homo sapiens (Human), UniProt P35222 2-781)
T1 construct: Also used here for the endogenous beta-catenin of the DLD1 TCF reporter cells; also called bCat; B-Catenin
T1 sequence: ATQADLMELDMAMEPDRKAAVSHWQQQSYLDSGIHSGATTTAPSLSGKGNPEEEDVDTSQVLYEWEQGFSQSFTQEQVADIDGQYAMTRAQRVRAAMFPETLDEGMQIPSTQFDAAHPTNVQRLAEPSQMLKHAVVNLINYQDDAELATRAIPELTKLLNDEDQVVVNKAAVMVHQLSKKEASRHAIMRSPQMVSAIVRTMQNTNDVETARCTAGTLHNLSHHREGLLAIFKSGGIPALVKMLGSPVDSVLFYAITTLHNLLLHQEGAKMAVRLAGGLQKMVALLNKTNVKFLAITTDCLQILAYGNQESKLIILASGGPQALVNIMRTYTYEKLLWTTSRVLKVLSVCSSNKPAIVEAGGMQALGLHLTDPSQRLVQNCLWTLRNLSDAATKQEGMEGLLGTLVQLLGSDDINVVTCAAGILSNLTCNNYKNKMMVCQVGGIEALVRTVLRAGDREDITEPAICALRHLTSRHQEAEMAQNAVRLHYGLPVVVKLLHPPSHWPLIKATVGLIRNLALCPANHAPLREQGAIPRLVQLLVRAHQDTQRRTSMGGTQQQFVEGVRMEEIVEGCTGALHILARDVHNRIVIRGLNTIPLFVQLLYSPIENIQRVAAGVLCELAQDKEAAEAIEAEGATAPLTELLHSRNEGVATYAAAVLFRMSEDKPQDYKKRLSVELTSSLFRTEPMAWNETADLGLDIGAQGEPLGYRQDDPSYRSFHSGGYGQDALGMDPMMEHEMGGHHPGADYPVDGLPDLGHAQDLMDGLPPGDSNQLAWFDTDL

T2: B-cat-Halo (beta-catenin HaloTag construct expressed in HEK293 cells) (UniProt P35222 1-781)
T2 sequence (looked up): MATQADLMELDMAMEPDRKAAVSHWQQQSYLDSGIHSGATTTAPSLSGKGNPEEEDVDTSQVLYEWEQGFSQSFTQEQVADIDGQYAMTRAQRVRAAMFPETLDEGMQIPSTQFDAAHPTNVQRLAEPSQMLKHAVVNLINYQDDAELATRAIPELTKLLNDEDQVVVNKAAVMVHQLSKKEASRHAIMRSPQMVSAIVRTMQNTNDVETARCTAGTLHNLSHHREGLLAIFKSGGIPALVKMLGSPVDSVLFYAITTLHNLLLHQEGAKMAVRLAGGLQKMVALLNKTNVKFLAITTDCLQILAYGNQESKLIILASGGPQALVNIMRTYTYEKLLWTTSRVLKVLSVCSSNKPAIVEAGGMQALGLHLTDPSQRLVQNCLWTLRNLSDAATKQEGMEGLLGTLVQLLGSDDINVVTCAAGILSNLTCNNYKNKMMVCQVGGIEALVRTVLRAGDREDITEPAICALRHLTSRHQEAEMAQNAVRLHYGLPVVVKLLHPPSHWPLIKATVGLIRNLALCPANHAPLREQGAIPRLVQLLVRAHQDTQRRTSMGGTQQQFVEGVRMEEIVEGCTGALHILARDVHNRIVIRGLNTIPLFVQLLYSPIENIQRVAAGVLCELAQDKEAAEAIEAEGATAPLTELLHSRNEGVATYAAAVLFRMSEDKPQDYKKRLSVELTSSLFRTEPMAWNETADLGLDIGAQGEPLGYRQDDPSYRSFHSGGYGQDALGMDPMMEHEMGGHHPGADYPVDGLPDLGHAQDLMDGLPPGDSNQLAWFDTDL

T3: B-cat-Halo (UniProt P35222 1-781)
T3 sequence (looked up): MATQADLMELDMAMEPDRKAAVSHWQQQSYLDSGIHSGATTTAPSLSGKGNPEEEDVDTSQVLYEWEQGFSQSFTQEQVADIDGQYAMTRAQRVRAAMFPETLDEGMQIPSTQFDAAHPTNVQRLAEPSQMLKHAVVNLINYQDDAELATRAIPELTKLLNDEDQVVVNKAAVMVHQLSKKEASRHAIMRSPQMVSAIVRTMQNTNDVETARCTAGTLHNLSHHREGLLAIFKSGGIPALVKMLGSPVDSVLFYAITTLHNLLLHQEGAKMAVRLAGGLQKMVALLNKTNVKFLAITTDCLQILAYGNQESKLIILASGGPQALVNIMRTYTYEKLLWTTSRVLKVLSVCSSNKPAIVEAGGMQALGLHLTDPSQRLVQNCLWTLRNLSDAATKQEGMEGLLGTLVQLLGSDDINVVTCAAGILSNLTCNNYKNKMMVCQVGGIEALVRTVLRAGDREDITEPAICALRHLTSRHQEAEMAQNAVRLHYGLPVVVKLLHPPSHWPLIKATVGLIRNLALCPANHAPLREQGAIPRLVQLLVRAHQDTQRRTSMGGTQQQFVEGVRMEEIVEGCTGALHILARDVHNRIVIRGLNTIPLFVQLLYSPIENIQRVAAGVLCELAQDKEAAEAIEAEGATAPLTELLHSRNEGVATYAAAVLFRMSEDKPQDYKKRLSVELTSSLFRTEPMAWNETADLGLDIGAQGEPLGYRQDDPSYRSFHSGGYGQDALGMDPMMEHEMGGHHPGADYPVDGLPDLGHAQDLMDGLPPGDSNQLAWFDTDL


Experiments:
[1] = molecular target: T1, full-length beta-Catenin (Uniprot ID …); assay: fluorescence polarization competition; full-length beta-catenin, competitor 5FAM-TCF4(10-53) probe
Method in brief: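 Incubate 60 minutes at 20° C. away from light, then read polarization in duplicate. Fit to 1:1 binding with hill slope.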

[2] = molecular target: T2, B-cat-Halo (beta-catenin HaloTag …); assay: cell-based or functional assay
[3] = molecular target: T3, B-cat-Halo; assay: cell-based or functional assay

EC50 [1] [µM] | NanoBRET Abs IC50 [2] [µM] | Binder | also measured
0.043 | – | Ac-[αAllylPro]DL[B5(4)]DEAAFN[S8]F[Bta]S-NH2 (staple 1-4, 4-11; also: olefin E/Z not assigned, earlier-eluting staple isomer, Stapled peptide composition) [I-750] | –
0.047 | – | Ac-[αAllylPro]DL[B5(4)]DEAAFN[S8]F[Bta][dN]-NH2 (staple 1-4, 4-11; also: later-eluting HPLC peak (staple isomer), Stapled peptide composition) [I-758] | –
2.39 | – | Ac-[αAllylPro]DL[B5(11)]DEAAFN[S8]F[Bta][NMeH]-NH2 (staple 1-4, 4-11; not fully specified, Stapled peptide composition) [I-747] | –
0.054 | – | XDLXDEAAFNXFXT (not fully specified; as printed: Ac-PL3-Asp-Leu-B5-Asp-Glu-Ala-Ala-Phe-Asn-S8-Phe-BztA-Thr-NH2; N-terminal Ac, C-terminal NH2; stapled by olefin metathesis PL3(1)-B5(4) and B5(4)-S8(11), Stapled peptide composition) [I-748] | –
0.064 | – | Ac-[αAllylPro]DL[B5(4)]DEAAFN[S8]F[Bta][dN]-NH2 (staple 1-4, 4-11; also: earlier-eluting HPLC peak (staple isomer), Stapled peptide composition) [I-757] | –
0.115 | – | Ac-[αAllylPro]DL[B5(4)]DEAAFN[S8]F[Bta][dT]-NH2 (staple 1-4, 4-11; also: earlier-eluting HPLC peak (staple isomer), Stapled peptide composition) [I-754] | –
0.04 | – | XDLXDEAAFNXFXT (not fully specified; as printed: Ac-PL3-Asp-Leu-B5-Asp-Glu-Ala-Ala-Phe-Asn-S8-Phe-BztA-Thr-NH2; N-terminal Ac, C-terminal NH2; stapled by olefin metathesis PL3(1)-B5(4) and B5(4)-S8(11), Stapled peptide composition) [I-749] | –
0.088 | – | Ac-[αAllylPro]DL[B5(4)]DEAAFN[S8]F[Bta][dT]-NH2 (staple 1-4, 4-11; also: later-eluting HPLC peak (staple isomer), Stapled peptide composition) [I-755] | –
– | 29.8 | Ac-[HypEs5]D[tBuAla][B5(18)]D[TfeGA]AAFT[PyrS2(3)][Phe(2-Cl)][Bta]Q-NH2 (staple 1-4, 4-11) [I-1846] | –
– | 8.8 | Ac-[αAllylPro]D[tBuAla][B5(18)]D[Phe(3-COOH)]AAFA[PyrS2(3)][Phe(2-Cl)][Bta]S-NH2 (staple 1-4, 4-11) [I-1849] | –
– | 6.3 | Ac-[αAllylPro]D[tBuAla][B5(18)]D[Dap](2Nic)AAFL[PyrS2(3)][3Thi][Bta]Q-NH2 (staple 1-4, 4-11; reading uncertain) [I-1845] | –
– | – | Ac-[αAllylPro]D[tBuAla][B5(12)]DNAAFL[PyrS2][3Thi][Bta]Q-NH2 (staple 1-4, 4-11) [I-856] | NanoBRET Abs IC50 [3]: 6.8 µM
– | 3.8 | Ac-[αAllylPro]D[tBuAla][B5(18)]D[Phe(3-COOH)]AAFL[PyrS2(3)][Phe(2-Cl)][Bta]A-NH2 (staple 1-4, 4-11) [I-1851] | –
– | 4.9 | Ac-[αAllylPro]D[tBuAla][B5(18)]D[Phe(3-COOH)]AAFL[PyrS2(3)][Phe(2-Cl)][Bta]-NH2 (staple 1-4, 4-11) [I-1852] | –
– | – | Ac-[αAllylPro]D[tBuAla][B5(12)]D[2COOHF]AAFL[PyrS2][3Thi][Bta]Q-NH2 (staple 1-4, 4-11) [I-854] | NanoBRET Abs IC50 [3]: 3.6 µM
